Values of other authors in publication PMC5218898.

Columns and labels:
RstB (Escherichia coli) = RstB (Escherichia coli) (UniProt P18392)
EnvZ (Escherichia coli) = EnvZ (Escherichia coli) (UniProt P0AEJ4)

| Kd (RstB (Escherichia coli)) [nM] | Substance | Kd (EnvZ (Escherichia coli)) [nM] |
| --- | --- | --- |
| 300 | RstB (from UniProt P18392) |  |
|  | EnvZ (from UniProt P0AEJ4) | 300 |
